Results on three substances are retold here after patent publication US20130280250A1.

The target in test [1] is gp41 of HIV-1IIIB (HIV-1IIIB) (UniProt P03377). Nature of the test: cell-based or functional assay.
For test [2], the target named is gp41 of HIV-1 6794 (HIV-1 6794). Nature of the test: cell-based or functional assay.
For test [3], the target named is CD20 (human) (UniProt P11836). Put plainly: cell-based or functional assay.
The target in test [4] is CD20 (human) (UniProt P11836). Put plainly: flow cytometry on Daudi cells, PE-anti-Fab. Background: In flow cytometry, cells or beads pass a laser one at a time.
In test [5] the target is CD20 (human) (UniProt P11836). Put plainly: Scatchard analysis, radio-iodinated sample on Raji cells; apparent association constant.

As for “T20 HIV fusion inhibitor (enfuvirtide, FUZEON) (peptide)”, the EC50 estimated, neutralization of HIV-1IIIB in Jurkat T cells, 50TCID50 in test [1] was 9 nM. In test [2], the EC50 estimated, neutralization of HIV-1 6794 in PBMCs, 50TCID50 is 9 nM and the EC50 estimated, neutralization of HIV-1 6794 in PBMCs, 100TCID50 is 9 nM.

With “Hex-hA20 (hexavalent anti-CD20 antibody, six Fabs with one Fc)”, in test [3], the EC50, inhibition of proliferation of Daudi cells (4-d MTS assay) is 0.15 nM; the EC50, inhibition of proliferation of Raji cells (4-d MTS assay) worked out at 0.064 nM; the EC50, inhibition of proliferation of Ramos cells (4-d MTS assay) stood at 0.15 nM; the EC50, viable cell counting assay, Ramos, 3 days turned out to be 0.17 nM. Also, the inhibition of cell proliferation at 0.5 nmol/L, viable cell counting, Raji and Ramos in test [3] was greater than 50%. The substance also registered a greater fluorescence intensity than veltuzumab (PE-anti-Fab) in test [4] of 40 to 50%. For the same substance, the Ka in test [5] worked out at 3.9e+08 M⁻¹.

With hLL2-(T20)4, in test [1], the EC50 estimated, neutralization of HIV-1IIIB in Jurkat T cells, 50TCID50 was less than 0.2 nM and the EC50 estimated, neutralization of HIV-1IIIB in Jurkat T cells, 100TCID50 is 0.1 nM. Besides, in test [2], the EC50 estimated, neutralization of HIV-1 6794 in PBMCs, 50TCID50 was less than 0.2 nM and the EC50 estimated, neutralization of HIV-1 6794 in PBMCs, 100TCID50 was less than 0.2 nM.
